Laboratory results: the supplement of paper PMC9170038

Tested on: MS2 coat protein
Assay: apparent KD of MS2 coat protein; designed switch direction (-1 OFF switch, 1 ON switch): -1; higher = weaker reporter binding
How it was run: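 Designed RNA switches with common flanks were made on Illumina chips by stalled E. coli RNA polymerase. Titration with SNAP-549-labelled MS2 coat protein doubled from 0.7 or 1.5 nM up to 3 µM. Apparent KD is each design's median over clusters after curve-fitting normalised fluorescence.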

[1] = Eterna round: R95, input ligand: FMN 200 uM
[2] = Eterna round: R95, input ligand: microRNA oligo, concentration not stated
[3] = Eterna round: R95, input ligand: none
[4] = input ligand: microRNA oligo, concentration not stated

Sequence | apparent KD of MS2 coat protein [1] | apparent KD of MS2 coat protein [2] | apparent KD of MS2 coat protein [3] | apparent KD of MS2 coat protein (input ligand: FMN 200 uM) | apparent KD of MS2 coat protein [4] | apparent KD of MS2 coat protein (input ligand: none)
UGGUAACAUGAGGAUCACCCAUGUCAGGAUAUCAGUAAGAAGAGAGGAGAGUAGAAGAUGAGAAGGGACUAUAU [Excluse me! 9 - Jieux - Exclusion 1] (puzzle: Exclusion 1) | 26.4 nM | 29.9 nM | 37.4 nM |  |  | 
UAUUAGCAAGCUAGAUCCCACAUGAGGAUCACCCAUGUGCUCGUCUUAUAAGGUACUGUGACGAAAGUCACGGUACC [Sensor 3, v1 - 96] (puzzle: Sensor v3, turn-off variant 1) | 56.8 nM | 798 nM | 57.5 nM |  |  | 
UCAAGUAUGUAGGAUAUGAUGUGAUUUUACAUAUCAGAAGGACGUACAUGAGGAUCACCCAUGUAACUUGCAUG [Exclusion 6 - B - 12:a] (puzzle: Exclusion 6) |  | 86.9 nM |  |  |  | 
CGGCAUGUCUGAGGAUAUCUGCACGUGUAGUGCAGAGAAGGCAGAACAUGAGGAUCACCCAUGUAGAUCAUUAACCGAUUAAUU [ENG1/7-A3] (Eterna round: R96, puzzle: Exclusion NG 1) |  |  |  | 201 nM | 162 nM | 184 nM
CCCUCACAUGAGGAUCACCCAUGUCAGGAUAUCUCAGUACGUCCACACGGACGCACCAAGAGAAGGGACAAAGC [Veara] (Eterna round: R97, puzzle: Exclusion 1) |  |  |  | 32.2 nM |  | 20 nM
CUAGCUUCGGCUAGUACAAGCUUUUUGCUCGUCUUAUUAACAUGAGGAUCACCCAUGUUAAUGAGACCUCAUGUAUU [Sensor v3 - turn-off variant 2 - 9] (Eterna round: R96, puzzle: Sensor v3, turn-off variant 2) |  |  |  | 11.5 nM | 12.2 nM | 13.6 nM
UGAGUGCUGCGAGGAUAUACAUGAGGAUCACCCAUGUAAUCGUGUGAGGCUUUGCCUCACACGAAGUAGAAGGCGCAGUACUCU [JL ENG2 1.10] (Eterna round: R96, puzzle: Exclusion NG 2) |  |  |  | 12 nM | 9.84 nM | 13.5 nM
AGAUGUAGAUACCGGUCCUACAUGAGGAUCACCCAUGUAGCUAGACGUGCGGGCGGCGCUCGUCGGUCUACCAGUAG [salish99_TOv1_r3_099] (puzzle: Sensor v3, turn-off variant 1) | 30.2 nM | 30.7 nM | 37.7 nM |  |  | 
UUAUAUAGUGUGAGGAUAUGCUGGUCCUUGGAUCAGCAGAAGGCACAUGAGGAUCACCCAUGUAGUUAAAUAUA [Mat - Exclusion 4 - JL Mod - D18] (puzzle: Brourd's mod of Exclusion 4) | 252 nM | 31.1 nM | 39.5 nM |  |  | 
GAGUCCUUGGUGAGGAUAUGGCGAGGAGCACUUGUCCAGAAGGCACAUGAGGAUCACCCAUGUUCUAGUAAUUG [Eternabot (L2) Solution 75] (Eterna round: R97, puzzle: Brourd's mod of Exclusion 4) |  |  |  | 77.2 nM |  | 30.2 nM
UCUCUUGGGCAAGGAUAUCCUGCGCGGUUCCGGUUCGUGUCUGUCACAUGAGGAUCACCCAUGUGGGAGAAGGUGCCUGCGGUC [Design 77] (Eterna round: R96, puzzle: Exclusion NG 2) |  |  |  | 24.5 nM | 12 nM | 16.7 nM
UUUUGCUCAGGAUAUACAUGAGGAUCACCCAUGUAUAUUGAAGGUAAUACAUGGGAAUGUAGAAGGGAGCUCAU [Omei Ex3 Pseudoloop 21] (Eterna round: R97, puzzle: Exclusion 3) |  |  |  | 47.9 nM |  | 70.4 nM
AGUCAGGCGGUAGGAUAUCCAUAUCGAGUGACCCUUUCAUAACAUGAGGAUCACCCAUGUCGGUGGGAGAAGGGCCGUAAGGCA [Mat - Exclusion NG 2 - Mod of JL - D69] (Eterna round: R96, puzzle: Exclusion NG 2) |  |  |  | 53.6 nM | 30.5 nM | 41.1 nM
GCAAGCUUUUGCUCGUCUUACAUGAGGAUCACCCAUGUCGGGUGAUUGCUUCGUGCCCGGGCCCGCCGGGCCCGGGC [-41.5, -70.8 kcal, A 12%] (Eterna round: R97, puzzle: Sensor, turn-off variant 1) |  |  |  | 76.9 nM |  | 97.8 nM
CUGUACUGAGGAUAUACAUGAGGAUCACCCAUGUGUUCCAGCUAGGAAACUAGCAAAUGUAGAAGGCAGUACAG [Mat - Exclusion 3 - Eli Mod - D50] (Eterna round: R97, puzzle: Exclusion 3) |  |  |  | 307 nM |  | 342 nM
GUCUCACAUGAGGAUCACCCAUGUGAGGAUAUGGUUUCGCUGGCCGUAGCCAGUGGAACCAGAAGGCGCAUGAU [Mat - Exclusion 1 - JL Mod - D3] (Eterna round: R97, puzzle: Exclusion 1) |  |  |  | 24.7 nM |  | 23 nM
UUACUCGCAGGAUAUACGGGACAUACACAUCAAACUACACGACAUGAGGAUCACCCAUGUAGAAGGGCGUUACA [Blue and Green] (Eterna round: R97, puzzle: Exclusion 2) |  |  |  | 73.5 nM |  | 51.2 nM

Sequence | apparent KD of MS2 coat protein [1] | apparent KD of MS2 coat protein [2] | apparent KD of MS2 coat protein [3] | apparent KD of MS2 coat protein (input ligand: FMN 200 uM) | apparent KD of MS2 coat protein [4] | apparent KD of MS2 coat protein (input ligand: none)
GCUAGGAAUGUCAGGAUAUGCUGAUCCUUGGAUCAGCAGAAGGGACAUGAGGAUCACCCAUGUGCUAACCUAGC [Mat - Exclusion 4 - JL Mod - D6] (Eterna round: R97, puzzle: Brourd's mod of Exclusion 4) |  |  |  | 177 nM |  | 30.8 nM
CAGUACUGAGGAUAUACAUGAGGAUCACCCAUGUGUUCCAGCUAGGAAACGAGCAAAAGUAGAAGGCAGUACUG [salish99_ex3_r3_071] (puzzle: Exclusion 3) |  | 19.7 nM |  |  |  | 
CUCAUGUGAGGAUAUCAGUAGUAAAAAAAUAAAAUUACUACUGAGAAGGCACAUGAGGAUCACCCAUGUGUCUU [EX4 331: Super Stable 31] (Eterna round: R96, puzzle: Exclusion 4) |  |  |  |  | 13.3 nM | 
AAGAAACAUGAGGAUCACCCAUGUGAGGAUAUGAAAAAGAAAAGAAAAGAAAGAAGGAUCAGAAGGCACAAAGG [salish99-ex1_r3_025] (puzzle: Exclusion 1) | 43 nM | 30.3 nM | 34.1 nM |  |  | 
UUAUGAGAGCAGGAUAUCUUAUAAGUGUAUUAAAGAGAAGGGCUCACAUGAGGAUCACCCAUGUGGUCCUAGAU [LRO-Excl6-17-mod of 4.86 by jal] (Eterna round: R97, puzzle: Exclusion 6) |  |  |  | 106 nM |  | 33.3 nM
UUUAAACAUGAGGAUCACCCAUGUAAGGAUAUACGAAUGCAGACACACACGGAUGCAAGUAGAAGGUACAAUGC [Design #9] (Eterna round: R97, puzzle: Exclusion 1) |  |  |  | 37.6 nM |  | 42.6 nM
AGCCACAGAGGAUAUACAUACAUCCAGUAGUAGAUACUACUACAUGAGGAUCACCCAUGUAGAAGGCUGUGGCA [Omei Ex2 BD B17] (Eterna round: R97, puzzle: Exclusion 2) |  |  |  | 603 nM |  | 162 nM
GACCUACAUGAGGAUCACCCAUGUGAGGAUAUAUUGUUAUUUAUAAUAUUUUUUAGUGGUAGAAGGCGCGUGAU [JR_Exc1_Sub018] (Eterna round: R97, puzzle: Exclusion 1) |  |  |  | 17.9 nM |  | 20.2 nM
ACUUAUAGAGGAUAUACAGUUAAUUACAUGAGGAUCACCCAUGUUCUUCAAUGUAUAUAAGUAGAAGGCAAAGGAA [Mat - Exclusion 5 - Eli Mod - D3] (Eterna round: R97, puzzle: Exclusion 5) |  |  |  | 23.2 nM |  | 16.2 nM
UACAUGAGGAUCACCCAUGUUUUGUCGUGUAUGGUAUUUAUCUAGGAUAUCAAGUUAUUUGUUUAUGAGAAGGAGAAUAUUAAU [JMF's solution 33] (Eterna round: R96, puzzle: Exclusion NG 3) |  |  |  | 37.1 nM | 26.1 nM | 37.1 nM
GCGUGAAGGCAGGAUAUAAGAAAAGAAAGAAAAUUAGAAGGGCCGACAUGAGGAUCACCCAUGUGGGCAUGAUC [Xeorusza] (Eterna round: R97, puzzle: Exclusion 6) |  |  |  | 33.8 nM |  | 15.9 nM
UCCAUGUCAGGAUAUCUAAAGGUCCGAAAUAACGGUACUGCAGAGAAGGGACAUGAGGAUCACCCAUGUCCUCC [Exclusion 4 (Mod2 of Nando's EX4 C.22)] (Eterna round: R97, puzzle: Exclusion 4) |  |  |  | 20.3 nM |  | 16 nM
AGGGAGUCAGGAUAUUAUUUUUAGCGGGAUAACGCUGAGGGUGAGAAGGGACAUGAGGAUCACCCAUGUUUUGA [JR_Ex4_Sub075] (Eterna round: R97, puzzle: Exclusion 4) |  |  |  | 167 nM |  | 183 nM
CGGCAUGUAGAAGGAUAUCUGCACGAUUAGUGCAGAGAAGGUCUAACAUGAGGAUCACCCAUGUAGAUCAUUAACCGAUUAAUU [ENG1/8-A1] (Eterna round: R96, puzzle: Exclusion NG 1) |  |  |  | 21.9 nM | 10.7 nM | 12 nM
CAUGGAUGUGAGCCGCAUUACAUGAGGAUCACCCAUGUCAACAAGCUUUUUGCUUGUCUUACGCGGCGGCAUCUAAA [Abebies] (puzzle: Sensor v3, turn-off variant 1) | 11.3 nM | 8.44 nM | 10.3 nM |  |  | 
GCACGACAUCAGGAUAUGACUAGCUGCGGCUAGUCAGAAGGGAUGACAUGAGGAUCACCCAUGUGAUCACGUGC [E6/2-B3] (Eterna round: R97, puzzle: Exclusion 6) |  |  |  | 114 nM |  | 85.3 nM
